Laboratory results published in publication PMC4359366, “Lis1 regulates dynein by sterically blocking its mechanochemical cycle” (eLife, 2014).

B1: Lis1^R301A (natural protein)
chain: MTNWQQQLPLTDTQKNELDKSVLRYLNWNYKQTVRHEHAQDYESVRHAIVTLSGFLLQESVDRQEFISNNDTSNESMVDIDELLLPKKWNSIVRLQKKIIELEQNTETLVSQIKDLNTQVSELAQFKPTTSNGTSAHNVLKWIPRNLPSCLINVESSVTSVKLHPNLPIVFVATDHGKLYAFDLFNYTIPLASLQSHTKAITSMDVLFTNYTNSSKKNYLVIVTASKDLQIHVFKWVSEECKFQQIRSLLGHEHIVSAVKIWQKNNDVHIASCSRDQTVKIWDFHNGWSLKTFQPHSQWVASIDVLGDYIISGSHDTTLRLTHWPSGNGLSVGTGHEFPIEKVKFIHFIEDSPEIRFRTPSTDRYKNWGMQYCVSASRDRTIKIWEIPLPTLMAHRAPIPNPTDSNFRCVLTLKGHLSWVRDISIRGQYLFSCADDKSVRCWDLNTGQCLHVWEKLHTGFVNCLDLDVDFDSNVTPRQMMVTGGLDCKSNVFMR
B2: Lis1 (Pac1), wild type, dimer (natural protein, S. cerevisiae, UniProt P39946 1-494, looked up)
chain: MTNWQQQLPLTDTQKNELDKSVLRYLNWNYKQTVRHEHAQDYESVRHAIVTLSGFLLQESVDRQEFISNNDTSNESMVDIDELLLPKKWNSIVRLQKKIIELEQNTETLVSQIKDLNTQVSELAQFKPTTSNGTSAHNVLKWIPRNLPSCLINVESSVTSVKLHPNLPIVFVATDHGKLYAFDLFNYTIPLASLQSHTKAITSMDVLFTNYTNSSKKNYLVIVTASKDLQIHVFKWVSEECKFQQIRSLLGHEHIVSAVKIWQKNNDVHIASCSRDQTVKIWDFHNGWSLKTFQPHSQWVRSIDVLGDYIISGSHDTTLRLTHWPSGNGLSVGTGHEFPIEKVKFIHFIEDSPEIRFRTPSTDRYKNWGMQYCVSASRDRTIKIWEIPLPTLMAHRAPIPNPTDSNFRCVLTLKGHLSWVRDISIRGQYLFSCADDKSVRCWDLNTGQCLHVWEKLHTGFVNCLDLDVDFDSNVTPRQMMVTGGLDCKSNVFMR
notes: Lis1 ortholog Pac1 (PAC1), S. cerevisiae; genomic PAC1 copy with ZZ-Tev in front; A Tev site follows the ZZ tag and a TEV buffer is named for the Lis1 purification, so the ZZ tag was probably cut off; also called WT Lis1; wild-type Lis1
B3: Lis1^R275A (natural protein)
chain: MTNWQQQLPLTDTQKNELDKSVLRYLNWNYKQTVRHEHAQDYESVRHAIVTLSGFLLQESVDRQEFISNNDTSNESMVDIDELLLPKKWNSIVRLQKKIIELEQNTETLVSQIKDLNTQVSELAQFKPTTSNGTSAHNVLKWIPRNLPSCLINVESSVTSVKLHPNLPIVFVATDHGKLYAFDLFNYTIPLASLQSHTKAITSMDVLFTNYTNSSKKNYLVIVTASKDLQIHVFKWVSEECKFQQIRSLLGHEHIVSAVKIWQKNNDVHIASCSADQTVKIWDFHNGWSLKTFQPHSQWVRSIDVLGDYIISGSHDTTLRLTHWPSGNGLSVGTGHEFPIEKVKFIHFIEDSPEIRFRTPSTDRYKNWGMQYCVSASRDRTIKIWEIPLPTLMAHRAPIPNPTDSNFRCVLTLKGHLSWVRDISIRGQYLFSCADDKSVRCWDLNTGQCLHVWEKLHTGFVNCLDLDVDFDSNVTPRQMMVTGGLDCKSNVFMR
B4: Lis1^K437A (natural protein)
chain: MTNWQQQLPLTDTQKNELDKSVLRYLNWNYKQTVRHEHAQDYESVRHAIVTLSGFLLQESVDRQEFISNNDTSNESMVDIDELLLPKKWNSIVRLQKKIIELEQNTETLVSQIKDLNTQVSELAQFKPTTSNGTSAHNVLKWIPRNLPSCLINVESSVTSVKLHPNLPIVFVATDHGKLYAFDLFNYTIPLASLQSHTKAITSMDVLFTNYTNSSKKNYLVIVTASKDLQIHVFKWVSEECKFQQIRSLLGHEHIVSAVKIWQKNNDVHIASCSRDQTVKIWDFHNGWSLKTFQPHSQWVRSIDVLGDYIISGSHDTTLRLTHWPSGNGLSVGTGHEFPIEKVKFIHFIEDSPEIRFRTPSTDRYKNWGMQYCVSASRDRTIKIWEIPLPTLMAHRAPIPNPTDSNFRCVLTLKGHLSWVRDISIRGQYLFSCADDASVRCWDLNTGQCLHVWEKLHTGFVNCLDLDVDFDSNVTPRQMMVTGGLDCKSNVFMR

Columns and labels:
[1] = target: GST-dynein_(331kDa) (S. cerevisiae); test: SEC; 400–800 nM dynein and 475–800 nM Lis1 mixed for 10 min at 4°C; Superose 6 PC 3.2/30; 50 mM Tris–HCl pH 8.0, 150 mM potassium acetate, 2 mM magnesium acetate, 1 mM EGTA, 1 mM DTT; fractions on SDS-PAGE with SYPRO Red, bands quantified in ImageJ
[2] = target: T1, short linker dynein DYN1_(314kDa) K3438E, R3445E, F3446D (AAA5 linker-docking mutant), monomeric (S. cerevisiae, UniProt P36022 1365-4092, K3438E | R3445E | F3446D); test: as above; conditions: both partners purified
T1 construct: Cytoplasmic dynein heavy chain (DYN1), S. cerevisiae, 314 kDa motor construct DYN1_(314kDa) (linker truncated at residue 1365) with the AAA5 mutations; also called short linker dynein with AAA5 mutations; GFP-3xHA-DYN1_(314kDa)^K3438E,R3445E,F3446D-gs-DHA

[3] = target: T2, short linker dynein, GFP-3xHA-DYN1_(314kDa)-gs-DHA, monomeric (S. cerevisiae, UniProt P36022 1365-4092); test: as above; conditions: both partners purified
T2 construct: ZZ tag probably cut off by Tev; also called monomeric short linker dynein; short linker construct; not shown: GFP, N-terminal, kept; 3xHA, N-terminal, kept

[4] = target: monomeric dynein motor domain, dynein_(331kDa) without tags on the linker (S. cerevisiae); test: cryo-EM structure; cryo-negative stain EM, single-particle 3D reconstruction; monomeric dynein (80–120 nM) pre-incubated for 10 min with Lis1 dimer at a 1.5-fold excess (120–180 nM); no nucleotide (apyrase 0.14 U/ml, 15 min); 2% uranyl formate
[5] = target: T3, short linker dynein, DYN1_(314kDa), without GFP (S. cerevisiae, UniProt P36022 1365-4092); test: as above; conditions: both partners purified
T3 construct: ZZ tag probably cut off by Tev; also called short linker construct
T3 sequence (P36022 1365-4092): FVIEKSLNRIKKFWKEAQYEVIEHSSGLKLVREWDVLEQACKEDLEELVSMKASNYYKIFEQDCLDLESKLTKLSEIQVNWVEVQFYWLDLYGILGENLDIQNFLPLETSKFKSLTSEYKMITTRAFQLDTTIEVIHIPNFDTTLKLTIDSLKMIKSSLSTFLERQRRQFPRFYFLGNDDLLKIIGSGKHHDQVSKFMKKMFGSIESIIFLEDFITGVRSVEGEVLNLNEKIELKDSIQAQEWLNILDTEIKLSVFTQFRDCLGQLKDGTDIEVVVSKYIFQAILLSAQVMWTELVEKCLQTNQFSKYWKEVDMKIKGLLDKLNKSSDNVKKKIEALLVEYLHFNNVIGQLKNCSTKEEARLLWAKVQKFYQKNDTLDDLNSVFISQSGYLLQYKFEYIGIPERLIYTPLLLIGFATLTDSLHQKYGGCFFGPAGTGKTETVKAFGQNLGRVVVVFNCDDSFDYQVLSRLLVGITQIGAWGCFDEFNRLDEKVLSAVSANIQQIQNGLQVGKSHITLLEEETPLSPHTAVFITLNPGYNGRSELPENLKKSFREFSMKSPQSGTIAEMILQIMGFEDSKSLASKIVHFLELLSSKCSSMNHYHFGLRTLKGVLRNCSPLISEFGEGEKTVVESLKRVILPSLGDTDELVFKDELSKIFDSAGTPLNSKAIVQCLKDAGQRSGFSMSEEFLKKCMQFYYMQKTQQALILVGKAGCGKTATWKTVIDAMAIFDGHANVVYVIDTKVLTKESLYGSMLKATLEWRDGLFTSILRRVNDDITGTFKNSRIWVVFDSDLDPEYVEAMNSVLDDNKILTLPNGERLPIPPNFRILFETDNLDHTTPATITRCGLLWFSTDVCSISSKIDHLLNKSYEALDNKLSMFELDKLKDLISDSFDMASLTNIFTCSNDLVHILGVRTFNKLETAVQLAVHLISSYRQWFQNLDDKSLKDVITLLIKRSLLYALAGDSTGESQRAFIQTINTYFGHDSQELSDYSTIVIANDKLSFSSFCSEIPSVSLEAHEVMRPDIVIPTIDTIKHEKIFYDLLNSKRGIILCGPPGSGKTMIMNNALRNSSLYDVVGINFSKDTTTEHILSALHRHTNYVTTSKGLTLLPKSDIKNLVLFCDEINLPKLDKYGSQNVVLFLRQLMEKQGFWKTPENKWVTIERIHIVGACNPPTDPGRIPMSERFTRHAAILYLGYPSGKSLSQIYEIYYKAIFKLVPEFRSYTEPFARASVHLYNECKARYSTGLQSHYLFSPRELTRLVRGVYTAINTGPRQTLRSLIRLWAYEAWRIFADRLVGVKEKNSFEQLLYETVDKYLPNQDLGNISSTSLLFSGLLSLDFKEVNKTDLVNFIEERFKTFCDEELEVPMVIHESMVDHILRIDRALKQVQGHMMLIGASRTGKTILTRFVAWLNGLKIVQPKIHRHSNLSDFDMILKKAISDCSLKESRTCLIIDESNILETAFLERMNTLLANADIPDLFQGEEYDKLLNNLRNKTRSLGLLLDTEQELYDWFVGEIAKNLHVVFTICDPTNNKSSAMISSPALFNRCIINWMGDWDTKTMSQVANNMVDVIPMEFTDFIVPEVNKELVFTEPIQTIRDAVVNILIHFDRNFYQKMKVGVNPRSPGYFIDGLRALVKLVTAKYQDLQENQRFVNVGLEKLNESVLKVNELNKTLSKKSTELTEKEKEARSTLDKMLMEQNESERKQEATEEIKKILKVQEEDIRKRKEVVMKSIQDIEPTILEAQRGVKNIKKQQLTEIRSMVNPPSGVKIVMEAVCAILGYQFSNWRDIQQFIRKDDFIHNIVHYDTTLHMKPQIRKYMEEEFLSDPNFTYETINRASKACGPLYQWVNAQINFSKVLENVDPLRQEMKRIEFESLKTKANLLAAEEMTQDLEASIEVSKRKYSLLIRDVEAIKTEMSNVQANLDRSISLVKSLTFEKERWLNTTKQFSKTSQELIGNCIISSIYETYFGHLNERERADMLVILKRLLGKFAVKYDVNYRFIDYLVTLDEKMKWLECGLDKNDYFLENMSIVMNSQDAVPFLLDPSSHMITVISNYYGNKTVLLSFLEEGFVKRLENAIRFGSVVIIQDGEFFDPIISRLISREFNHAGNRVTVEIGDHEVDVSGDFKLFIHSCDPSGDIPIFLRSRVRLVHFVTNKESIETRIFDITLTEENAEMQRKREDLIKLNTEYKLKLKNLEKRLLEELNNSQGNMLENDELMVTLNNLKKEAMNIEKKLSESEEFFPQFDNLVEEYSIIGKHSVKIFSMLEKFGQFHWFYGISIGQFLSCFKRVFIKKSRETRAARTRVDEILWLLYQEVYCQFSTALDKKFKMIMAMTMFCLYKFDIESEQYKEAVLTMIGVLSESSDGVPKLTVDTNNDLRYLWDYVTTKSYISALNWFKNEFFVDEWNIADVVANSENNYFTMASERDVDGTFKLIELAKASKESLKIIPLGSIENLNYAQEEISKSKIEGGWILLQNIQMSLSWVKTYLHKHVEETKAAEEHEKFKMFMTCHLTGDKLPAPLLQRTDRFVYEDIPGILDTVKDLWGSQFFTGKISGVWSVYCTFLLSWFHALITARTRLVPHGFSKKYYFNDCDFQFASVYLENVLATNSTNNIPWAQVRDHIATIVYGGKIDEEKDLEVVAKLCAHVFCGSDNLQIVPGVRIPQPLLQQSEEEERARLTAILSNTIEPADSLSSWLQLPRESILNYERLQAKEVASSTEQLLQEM

T1 sequence (P36022 1365-4092 K3438E/R3445E/F3446D): as the sequence (P36022 1365-4092) above, with K2074E, R2081E, F2082D counted along it
T2 sequence (P36022 1365-4092): as the sequence (P36022 1365-4092) above

Row | Binder | GST-dynein (331kDa) share of the dynein:Lis1 band ratio in the SEC complex peak [1] | Lis1 share of the dynein:Lis1 band ratio in the SEC complex peak [1] | binding result [2] | binding result [3] | stoichiometry N (Lis1 propeller per dynein motor domain) [4] | binding result [5]
1 | B1 | 0.88 | 0.12 |  |  |  | 
2 | B2 | 0.82 | 0.18 | binds | binds | 1 | binds
3 | B3 | 0.85 | 0.15 |  |  |  | 
4 | B4 | 0.85 | 0.15 |  |  |  | 
